Measurements: patent publication US20130065832A1 (WASHINGTON UNIVERSITY, published 2013)

Columns and labels:
[1] = target: T1, MOR1 (endogenous, mouse spinal cord) (mouse, UniProt P42866 1-398); test: co-IP with anti-MOR1 antibody from spinal cord membrane preparation, immunoblot for GRPR
T1 construct: Untagged native receptor; precipitated with a rabbit anti-MOR1 antibody (Neuromics)

[2] = target: T2, MOR1D (endogenous, mouse spinal cord) (mouse, UniProt P42866-9 1-393); test: co-IP with anti-MOR1D antibody from spinal cord membrane preparation, immunoblot for GRPR
T2 construct: Untagged native receptor in spinal cord membrane preparations and sections; MOR1D is a splice isoform of it; also called spinal MOR1D
T2 sequence (P42866 1-386, tags or fused parts left off): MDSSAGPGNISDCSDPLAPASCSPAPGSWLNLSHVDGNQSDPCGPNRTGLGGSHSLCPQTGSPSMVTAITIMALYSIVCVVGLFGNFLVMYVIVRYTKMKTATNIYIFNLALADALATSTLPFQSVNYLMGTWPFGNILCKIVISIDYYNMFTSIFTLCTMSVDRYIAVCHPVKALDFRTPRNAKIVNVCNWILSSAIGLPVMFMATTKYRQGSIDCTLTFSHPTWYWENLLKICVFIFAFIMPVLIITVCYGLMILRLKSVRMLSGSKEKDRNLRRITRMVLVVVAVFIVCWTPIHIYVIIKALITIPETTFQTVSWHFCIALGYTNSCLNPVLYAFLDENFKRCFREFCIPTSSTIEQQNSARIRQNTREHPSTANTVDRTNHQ

T1 sequence (P42866 whole entry): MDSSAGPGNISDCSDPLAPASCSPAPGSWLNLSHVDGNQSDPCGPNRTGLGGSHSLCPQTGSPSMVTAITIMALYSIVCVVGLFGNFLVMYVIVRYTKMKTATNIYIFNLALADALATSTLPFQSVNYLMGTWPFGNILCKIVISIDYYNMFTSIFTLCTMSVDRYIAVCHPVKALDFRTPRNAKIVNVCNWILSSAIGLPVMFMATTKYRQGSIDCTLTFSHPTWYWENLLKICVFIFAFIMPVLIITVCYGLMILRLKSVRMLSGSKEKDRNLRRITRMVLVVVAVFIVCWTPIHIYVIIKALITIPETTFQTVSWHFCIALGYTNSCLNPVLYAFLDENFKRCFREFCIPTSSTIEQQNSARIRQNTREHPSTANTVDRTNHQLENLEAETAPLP

B1: GRPR (endogenous, mouse spinal cord) (receptor, UniProt P21729 1-384, looked up)
chain: MAPNNCSHLNLDVDPFLSCNDTFNQSLSPPKMDNWFHPGFIYVIPAVYGLIIVIGLIGNITLIKIFCTVKSMRNVPNLFISSLALGDLLLLVTCAPVDASKYLADRWLFGRIGCKLIPFIQLTSVGVSVFTLTALSADRYKAIVRPMDIQASHALMKICLKAALIWIVSMLLAIPEAVFSDLHPFHVKDTNQTFISCAPYPHSNELHPKIHSMASFLVFYVIPLAIISVYYYFIARNLIQSAYNLPVEGNIHVKKQIESRKRLAKTVLVFVGLFAFCWLPNHVIYLYRSYHYSEVDTSMLHFVTSICARLLAFTNSCVNPFALYLLSKSFRKQFNTQLLCCQPGLMNRSHSTGRSTTCMTSFKSTNPSATFSLINRNICHEGYV
notes: Untagged native receptor in spinal cord membrane preparations; also called gastrin-releasing peptide receptor
binding result [1]: no binding
binding result [2]: binds
